Experimental data taken from paper PMC8881453, “Cryo-EM structure of translesion DNA synthesis polymerase ζ with a base pair mismatch” (Nature Communications, 2022).
One block for each molecule: values may come before it.

B2: Pol31, accessory subunit of DNA polymerase ζ (Polζ) (natural protein, Saccharomyces cerevisiae, UniProt P46957 1-487, looked up)
chain: MDALLTKFNEDRSLQDENLSQPRTRVRIVDDNLYNKSNPFQLCYKKRDYGSQYYHIYQYRLKTFRERVLKECDKRWDAGFTLNGQLVLKKDKVLDIQGNQPCWCVGSIYCEMKYKPNVLDEVINDTYGAPDLTKSYTDKEGGSDEIMLEDESGRVLLVGDFIRSTPFITGVVVGILGMEAEAGTFQVLDICYPTPLPQNPFPAPIATCPTRGKIALVSGLNLNNTSPDRLLRLEILREFLMGRINNKIDDISLIGRLLICGNSVDFDIKSVNKDELMISLTEFSKFLHNILPSISVDIMPGTNDPSDKSLPQQPFHKSLFDKSLESYFNGSNKEILNLVTNPYEFSYNGVDVLAVSGKNINDICKYVIPSNDNGESENKVEEGESNDFKDDIEHRLDLMECTMKWQNIAPTAPDTLWCYPYTDKDPFVLDKWPHVYIVANQPYFGTRVVEIGGKNIKIISVPEFSSTGMIILLDLETLEAETVKIDI
notes: Pol31, Saccharomyces cerevisiae, accessory subunit of Polζ, full-length (residues 1-487); source: expressed in yeast from plasmids pBJ1462 and pBJ1524, purified as the Polζ holoenzyme
B4: Pol32, accessory subunit of DNA polymerase ζ (Polζ) (natural protein, Saccharomyces cerevisiae, UniProt P47110 1-350, looked up)
chain: MDQKASYFINEKLFTEVKPVLFTDLIHHLKIGPSMAKKLMFDYYKQTTNAKYNCVVICCYKDQTIKIIHDLSNIPQQDSIIDCFIYAFNPMDSFIPYYDIIDQKDCLTIKNSYELKVSESSKIIERTKTLEEKSKPLVRPTARSKTTPEETTGRKSKSKDMGLRSTALLAKMKKDRDDKETSRQNELRKRKEENLQKINKQNPEREAQMKELNNLFVEDDLDTEEVNGGSKPNSPKETDSNDKDKNNDDLEDLLETTAEDSLMDVPKIQQTKPSETEHSKEPKSEEEPSSFIDEDGYIVTKRPATSTPPRKPSPVVKRALSSSKKQETPSSNKRLKKQGTLESFFKRKAK
notes: Pol32, Saccharomyces cerevisiae, accessory subunit of Polζ, full-length (residues 1-350); The full-length protein was in the sample; also called Pol32N; source: expressed in yeast from plasmids pBJ1462 and pBJ1524, purified as the Polζ holoenzyme

Legend:
[1] = target: T1, Polζ holoenzyme (Rev3-Rev7-Pol31-Pol32) (Saccharomyces cerevisiae, UniProt P14284); experiment: cryo-EM structure, […] Å; format: binding; conditions: ternary complex with dideoxy-terminated A:C mismatched primer-template DNA, templating G; 1 mM dCTP; CaCl2 (Ca2+ metal B); Rev3 active site, fingers open
T1 construct: full-length subunits, holoenzyme expressed in yeast from plasmids pBJ1462 and pBJ1524; pentameric complex with two Rev7 (Rev7A, Rev7B); with DNA polymerase zeta processivity subunit; DNA polymerase delta small subunit; DNA polymerase delta subunit 3
T1 sequence (P14284 whole entry, one chain of several): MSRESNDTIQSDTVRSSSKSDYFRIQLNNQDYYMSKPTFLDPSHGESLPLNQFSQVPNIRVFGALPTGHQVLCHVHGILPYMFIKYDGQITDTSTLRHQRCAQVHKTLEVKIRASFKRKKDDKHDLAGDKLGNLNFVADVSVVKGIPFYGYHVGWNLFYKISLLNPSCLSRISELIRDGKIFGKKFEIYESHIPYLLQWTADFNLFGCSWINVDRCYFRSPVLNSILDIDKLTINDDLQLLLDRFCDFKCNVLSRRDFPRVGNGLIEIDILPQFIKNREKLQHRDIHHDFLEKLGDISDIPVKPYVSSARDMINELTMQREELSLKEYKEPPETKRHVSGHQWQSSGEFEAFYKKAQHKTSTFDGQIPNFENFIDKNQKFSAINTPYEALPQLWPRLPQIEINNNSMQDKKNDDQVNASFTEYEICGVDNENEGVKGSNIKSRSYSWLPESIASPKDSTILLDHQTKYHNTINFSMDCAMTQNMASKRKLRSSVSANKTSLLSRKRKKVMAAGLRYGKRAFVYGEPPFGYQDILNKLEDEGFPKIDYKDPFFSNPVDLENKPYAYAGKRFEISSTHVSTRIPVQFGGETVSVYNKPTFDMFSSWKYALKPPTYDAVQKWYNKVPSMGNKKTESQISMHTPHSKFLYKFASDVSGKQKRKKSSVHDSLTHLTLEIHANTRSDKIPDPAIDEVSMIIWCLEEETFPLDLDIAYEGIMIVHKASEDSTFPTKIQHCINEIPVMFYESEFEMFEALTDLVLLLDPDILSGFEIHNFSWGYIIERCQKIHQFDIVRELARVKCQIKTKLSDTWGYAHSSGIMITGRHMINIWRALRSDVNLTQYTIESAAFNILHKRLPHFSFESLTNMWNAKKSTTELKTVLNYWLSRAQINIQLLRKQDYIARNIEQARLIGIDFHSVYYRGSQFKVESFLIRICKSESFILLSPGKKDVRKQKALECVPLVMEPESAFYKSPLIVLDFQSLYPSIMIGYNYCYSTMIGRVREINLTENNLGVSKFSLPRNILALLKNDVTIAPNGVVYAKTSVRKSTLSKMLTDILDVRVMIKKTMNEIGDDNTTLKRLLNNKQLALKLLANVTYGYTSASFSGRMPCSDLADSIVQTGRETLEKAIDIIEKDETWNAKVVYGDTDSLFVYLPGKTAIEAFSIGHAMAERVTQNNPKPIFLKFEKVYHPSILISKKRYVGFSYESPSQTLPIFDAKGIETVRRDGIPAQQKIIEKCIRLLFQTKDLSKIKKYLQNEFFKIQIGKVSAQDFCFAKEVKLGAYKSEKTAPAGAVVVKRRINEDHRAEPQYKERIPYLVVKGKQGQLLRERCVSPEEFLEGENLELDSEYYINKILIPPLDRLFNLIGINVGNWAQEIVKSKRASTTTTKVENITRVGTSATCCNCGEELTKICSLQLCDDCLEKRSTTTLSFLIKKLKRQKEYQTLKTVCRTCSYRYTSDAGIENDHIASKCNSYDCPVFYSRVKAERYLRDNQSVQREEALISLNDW

[2] = target: B4; experiment: cryo-EM structure; Polζ holoenzyme incubated in a CaCl2 supplemented buffer with palindromic DNA (1.5 molar excess) with an A:C mismatch at the primer terminus, 1 mM dCTP; nominal resolution 3.05 Å; conditions: both partners purified
[3] = target: T2, Rev3, catalytic subunit of DNA polymerase ζ (Polζ) (Saccharomyces cerevisiae, UniProt P14284 1-1504); experiment: as above; conditions: both partners purified
T2 construct: Rev3, Saccharomyces cerevisiae, catalytic subunit of Polζ, full-length (residues 1-1,504); also called catalytic Rev3; source: expressed in yeast from plasmids pBJ1462 and pBJ1524, purified as the Polζ holoenzyme
T2 sequence (P14284 whole entry, the tested form may be a part): as the sequence (P14284 whole entry, one chain of several) above

Rev3 (Polζ catalytic …) = target: Rev3 (Polζ catalytic subunit);Rev7;Pol31;Pol32 (Saccharomyces cerevisiae;Saccharomyces …, UniProt P14284;P38927;P46957;P47110 1-1504;1-245;1-487;1-350, |||); experiment: cryo-EM structure (3.05 Å); 1 mM dCTP, CaCl2; metal ion B; CaCl2-supplemented buffer, DNA in 1.5 molar excess, 1 mM dCTP; salt, pH and temperature not given; conditions: protein: recombinant;recombinant;recombinant;recombinant; tags: ;;;; copies: 1;2;1;1; self-annealed palindrome, 2 copies of one strand; 5' overhang 5 nt (TAATG, templating G); A6:C30 mismatch at primer terminus; central A:A
Chain of Rev3 (Polζ catalytic subunit);Rev7;Pol31;Pol32 (P14284 whole entry, one chain of several): as above

[4] = target: B2; experiment: cryo-EM structure; Polζ holoenzyme incubated in a CaCl2 supplemented buffer with palindromic DNA (1.5 molar excess) with an A:C mismatch at the primer terminus, 1 mM dCTP; nominal resolution 3.05 Å; conditions: both partners purified

Molecule: Nc1ccn([C@H]2C[C@H](O)[C@@H](COP(=O)(O)OP(=O)(O)OP(=O)(O)O)O2)c(=O)n1 [dCTP]
cryo-EM structure, 3.05 Å [1]: Rev3 is observed with the incoming nucleotide dCTP (position P0) opposite the templating base G

binding result [2]: binds | binding result [3]: binds
B1: Rev7, accessory subunit of DNA polymerase ζ (Polζ) (natural protein, Saccharomyces cerevisiae, UniProt P38927 1-245, looked up)
chain: MNRWVEKWLRVYLKCYINLILFYRNVYPPQSFDYTTYQSFNLPQFVPINRHPALIDYIEELILDVLSKLTHVYRFSICIINKKNDLCIEKYVLDFSELQHVDKDDQIITETEVFDEFRSSLNSLIMHLEKLPKVNDDTITFEAVINAIELELGHKLDRNRRVDSLEEKAEIERDSNWVKCQEDENLPDNNGFQPPKIKLTSLVGSDVGPLIIHQFSEKLISGDDKILNGVYSQYEEGESIFGSLF
notes: Rev7, Saccharomyces cerevisiae, accessory subunit of Polζ, full-length (residues 1-245); Two copies (Rev7A and Rev7B) stand in the pentameric holoenzyme; also called Rev7B; source: expressed in yeast from plasmids pBJ1462 and pBJ1524, purified as the Polζ holoenzyme

Molecule: B2
binding result [3]: binds

B3: A:C mismatched palindromic template-primer (dsDNA)
DNA 1: TAATGATAGGGGAGGGAATCCCTCCCCTAC
DNA 2: TAATGATAGGGGAGGGAATCCCTCCCCTAC
modifications: 3'-dideoxy C terminus
binding result (Rev3 (Polζ catalytic …)): binds

Molecule: B4
binding result [4]: binds
